Source: patent US20070207967A1, “Peptide Inhibitors of Matrix Metalloproteinase Activity” (CTT CANCER TARGETING TECHNOLOGIES OY, priority 2004, published 2007)
Ends that are not written are not given here.

Molecular target: 125I-labelled MMP-9 C domain (UniProt P14780)
Experiment: phage-binding assay, 125I-labelled against unlabelled MMP-9 C domain

125I-labelled MMP-9 C domain, sequence (P14780 513-707 limits assumed, form in doubt): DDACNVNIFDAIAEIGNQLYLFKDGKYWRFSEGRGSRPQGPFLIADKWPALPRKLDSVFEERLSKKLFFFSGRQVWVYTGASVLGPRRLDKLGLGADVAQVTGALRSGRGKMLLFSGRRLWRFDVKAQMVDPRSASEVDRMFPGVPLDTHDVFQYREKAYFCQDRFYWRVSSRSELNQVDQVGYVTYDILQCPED

B1: CRV phage (… displayed on phage) (peptide)
peptide: CRVYGPYLLC
modifications: cysteine pairing not given here; also: displayed on phage as coat protein fusion
% of CRV peptide-binding activity retained after 125I-labelling: 40%
